From publication PMC8247761, “BZR1 Regulates Brassinosteroid-Mediated Activation of AMT1;2 in Rice”

T1: His:BZR1 (Oryza sativa (rice), UniProt Q7XI96 1-298)
T1 sequence: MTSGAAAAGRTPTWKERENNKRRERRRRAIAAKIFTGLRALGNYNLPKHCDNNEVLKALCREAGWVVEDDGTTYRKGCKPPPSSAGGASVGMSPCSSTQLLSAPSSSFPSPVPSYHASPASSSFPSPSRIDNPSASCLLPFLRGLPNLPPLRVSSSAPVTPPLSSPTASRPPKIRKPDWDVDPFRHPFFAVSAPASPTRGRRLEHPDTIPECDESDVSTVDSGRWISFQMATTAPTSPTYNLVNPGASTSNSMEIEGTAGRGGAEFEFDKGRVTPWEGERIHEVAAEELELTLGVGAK

B1: probe B (BRRE B, AMT1;2 promoter P4) (dsDNA)
DNA 1: TGGTCGCATCGTCGTGCGTGAGCTGCCTATCG
DNA 2: CGATAGGCAGCTCACGCACGACGATGCGACCA
B2: probe A (BRRE A, AMT1;2 promoter P4) (dsDNA)
DNA 1: GTCTCACCGGGCTGCGTGCGTACGCCGATA
DNA 2: TATCGGCGTACGCACGCAGCCCGGTGAGAC

Columns and labels:
His:BZR1 [1] = biological target: T1, His:BZR1; test: EMSA; stronger than probe A; EMSA: 1 ug His:BZR1, 40k cpm 32P-labeled probe; buffer, salt, pH and temperature not given (protocol of Je et al., 2010); details: protein: recombinant; tags: His (pET28a(+)); chain copies: 2; label: 32P; blunt
His:BZR1 [2] = biological target: T1, His:BZR1; test: EMSA; slightly weaker than probe B; EMSA: 1 ug His:BZR1, 40k cpm 32P-labeled probe; buffer, salt, pH and temperature not given (protocol of Je et al., 2010); details: protein: recombinant; tags: His (pET28a(+)); chain copies: 2; label: 32P; blunt

Binder	binding result (His:BZR1 [1])	binding result (His:BZR1 [2])
B1	binds	–
B2	–	binds
